One block for each molecule: values may come before it.
Molecular target: transducin (Homo sapiens, UniProt P11488)
Test: GTPyS uptake assay: effect of BR-rhodopsin loop 3 chimeras on GDP-GTP exchange on transducin
Assay type: biochemical
Procedure: The ability of the chimeric protein to promote GTP-GDP exchange was evaluated for each of three BR-rhodopsin loop 3 chimeras by evaluating the effect of the chimera on the rate of GDP-GTP exchange on transducin using a GTPyS uptake assay, as described below.
Chimeric or bacteriorhodopsin protein (1.7 uM) was incubated with 0.8 uM holotransducin with 10 nM ^35S radiolabeled GTPyS in buffer (20 mM Hepes (pH 7.5), 5 mM MgCl2, 1 mM DTT, 0.1 mM EDTA, and 20 mM NaCl). The reaction was incubated at 30° C. for 5, 10, 15 or 30 minutes. The reaction was terminated by transferring aliquots of the reaction mixture to nitrocellulose filters (0.45 um) prewetted with wash buffer (10 mM Tris (pH 7.5), 5 mM MgCl2, 100 mM NaC1, 0.1 mM EDTA) and placed on a vacuum manifold. The filters were then washed with 8 ml of wash buffer. The filters were then placed overnight in scintillation vials filled with 20 ml of scintillation cocktail. The activity of the vials was counted by a Liquid Scintillation Counter. For the BR-Rhodopsin loop 3 chimeras, in which the rhodopsin intracellular loop 3 replaced the native BR intracellular loop 3 and was fused from T157 on BR TM 5 to V167 on BR TM 6, activity was determined by an increased uptake of GTPS over basal exchange by transducin alone.
A time course study was next performed for Rhodopsin Insert Y223 to M253 (3C)
The following experiments repeated the study of GTPγS exchange with a new culture of the BR-Rhodopsin chimera for Rhodopsin Insert Y223 (3C) as well as three new chimeras.

[1] = 10 Minutes, new culture of 3C and three new chimeras

Chain of transducin (P11488 2-350 limits assumed): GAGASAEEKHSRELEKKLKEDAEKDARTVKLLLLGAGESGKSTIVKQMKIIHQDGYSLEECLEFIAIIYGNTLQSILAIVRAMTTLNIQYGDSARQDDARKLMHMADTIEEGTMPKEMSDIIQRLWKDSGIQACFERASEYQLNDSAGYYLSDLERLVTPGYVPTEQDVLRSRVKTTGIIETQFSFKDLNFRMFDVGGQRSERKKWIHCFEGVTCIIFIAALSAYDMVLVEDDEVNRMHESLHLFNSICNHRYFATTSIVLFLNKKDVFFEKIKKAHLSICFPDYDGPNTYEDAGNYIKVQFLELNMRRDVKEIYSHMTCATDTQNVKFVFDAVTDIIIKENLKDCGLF
Chain of transducin (P62873 2-340 partner limits assumed): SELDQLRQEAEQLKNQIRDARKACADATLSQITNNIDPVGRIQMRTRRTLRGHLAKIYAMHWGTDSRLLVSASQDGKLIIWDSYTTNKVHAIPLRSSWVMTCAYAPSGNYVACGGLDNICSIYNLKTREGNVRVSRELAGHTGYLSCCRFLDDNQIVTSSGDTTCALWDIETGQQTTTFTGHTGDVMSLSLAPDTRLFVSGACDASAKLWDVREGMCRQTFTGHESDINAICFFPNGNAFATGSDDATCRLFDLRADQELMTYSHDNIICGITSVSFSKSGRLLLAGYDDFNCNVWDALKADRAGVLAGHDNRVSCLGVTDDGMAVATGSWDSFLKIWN
Chain of transducin (P63211 2-71 partner limits assumed): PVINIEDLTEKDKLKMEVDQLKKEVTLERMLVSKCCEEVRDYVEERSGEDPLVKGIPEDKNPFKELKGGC

Activation (×100%) Over Basal Exchange [1]: 1.17 ×100%
B1: 3B: bacteriorhodopsin chimera, loop 3 replaced by bovine rhodopsin Y223-T251; loop amino acid sequence SEQ ID NO:28 (protein)
chain: QAQITGRPEWIWLALGTALMGLGTLYFLVKGMGVSDPDAKKFYAITTLVPAIAFTMYLSMLLGYGLTMVPFGGEQNPIYWARYADWLFTTPLLLLDLALLVDADQGTILALVGADGIMIGTGLVGALTKVYSYRFVWWAISTAAMLYILYVLFFGFTYGQLVFTVKEAAAQQQESATTQKAEKEVTVASTFKVLRNVTVVLWSAYPVVWLIGSEGAGIVPLNIETLLFMVLDVSAKVGFGLILLRSRAIFGEAEAPEPSAGDGAAATSD

Activation (×100%) Over Basal Exchange [1]: 1.46 ×100%
B2: 3E: bacteriorhodopsin chimera, loop 3 replaced by bovine rhodopsin G224-M253; loop amino acid sequence SEQ ID NO:34 (protein)
chain: QAQITGRPEWIWLALGTALMGLGTLYFLVKGMGVSDPDAKKFYAITTLVPAIAFTMYLSMLLGYGLTMVPFGGEQNPIYWARYADWLFTTPLLLLDLALLVDADQGTILALVGADGIMIGTGLVGALTKVYSYRFVWWAISTAAMLYILYVLFFGFTGQLVFTVKEAAAQQQESATTQKAEKEVTRMVASTFKVLRNVTVVLWSAYPVVWLIGSEGAGIVPLNIETLLFMVLDVSAKVGFGLILLRSRAIFGEAEAPEPSAGDGAAATSD

Activation (3C) (×10°) over Basal Exchange (100 μM GDP, 10 Minutes): 1.67 ×10°
Activation by 3C (×100%) Over Basal Exchange (5 Minutes): 1.56 ×100%
Activation by 3C (×100%) Over Basal Exchange (10 Minutes): 1.95 ×100%
Specific counts (Lattice Form) (10 Minutes, 100 uM GDP): 12577 counts
Activation (×100%) Over Basal Exchange [1]: 1.44 ×100%
Specific counts (Lattice Form) [1]: 77125 counts
Specific counts (Lattice Form) (10 Minutes, no peptide (8 uM peptide experiment)): 51423 counts
SPECIFIC COUNTS: (Lattice Form) (10 Minutes, no peptide (50 uM peptide experiment)): 93448 counts
Activation by 3C (×100%) Over Basal Exchange (15 Minutes): 1.97 ×100%
Specific counts (Lattice Form) (time course, 5 min): 26273 counts
Specific counts (Lattice Form) (time course, 10 min): 51423 counts
Specific counts (Lattice Form) (time course, 15 min): 66566 counts
B3: 3C: bacteriorhodopsin chimera, loop 3 replaced by bovine rhodopsin Y223-M253; loop amino acid sequence SEQ ID NO:30 (protein)
chain: QAQITGRPEWIWLALGTALMGLGTLYFLVKGMGVSDPDAKKFYAITTLVPAIAFTMYLSMLLGYGLTMVPFGGEQNPIYWARYADWLFTTPLLLLDLALLVDADQGTILALVGADGIMIGTGLVGALTKVYSYRFVWWAISTAAMLYILYVLFFGFTYGQLVFTVKEAAAQQQESATTQKAEKEVTRMVASTFKVLRNVTVVLWSAYPVVWLIGSEGAGIVPLNIETLLFMVLDVSAKVGFGLILLRSRAIFGEAEAPEPSAGDGAAATSD

Activation (×100%) Over Basal Exchange [1]: 1.0 ×100%
B4: 3D: bacteriorhodopsin chimera, loop 3 replaced by bovine rhodopsin Q225-T251; loop amino acid sequence SEQ ID NO:32 (protein)
chain: QAQITGRPEWIWLALGTALMGLGTLYFLVKGMGVSDPDAKKFYAITTLVPAIAFTMYLSMLLGYGLTMVPFGGEQNPIYWARYADWLFTTPLLLLDLALLVDADQGTILALVGADGIMIGTGLVGALTKVYSYRFVWWAISTAAMLYILYVLFFGFTQLVFTVKEAAAQQQESATTQKAEKEVTVASTFKVLRNVTVVLWSAYPVVWLIGSEGAGIVPLNIETLLFMVLDVSAKVGFGLILLRSRAIFGEAEAPEPSAGDGAAATSD

— patent publication US20040248202A1, “Bacteriorhodopsin/G protein-coupled receptor chimeras” (Wisconsin Alumni Research Foundation, priority 1998, published 2004)
